Assay [1] addresses HLA-A*31:01. Kind of assay: IEDB peptide-MHC binding, purified MHC/competitive/fluorescence; filed as Kd, often an IC50 or EC50 that approximates it; ≥ and ≤ were set here for values at or beyond the usual limits of such assays.
Assay [2] deals with HLA-A*11:01. Nature of the assay: IEDB peptide-MHC binding, purified MHC/direct/fluorescence; filed as Kd, often an IC50 or EC50 that approximates it; ≥ and ≤ were set here for values at or beyond the usual limits of such assays.
Assay [3] has as its target HLA-B*15:03. Nature of the assay: IEDB peptide-MHC binding, purified MHC/competitive/radioactivity; filed as Kd, often an IC50 or EC50 that approximates it; ≥ and ≤ were set here for values at or beyond the usual limits of such assays.
For assay [4], the target named is HLA-B*15:01. Nature of the assay: IEDB peptide-MHC binding, purified MHC/competitive/fluorescence; ≥ and ≤ were set here for values at or beyond the usual limits of such assays.
Assay [5] concerns the target HLA-A*02:01. Nature of the assay: IEDB peptide-MHC binding, purified MHC/competitive/radioactivity; filed as Kd, often an IC50 or EC50 that approximates it; ≥ and ≤ were set here for values at or beyond the usual limits of such assays. Particulars: source organism: Dengue virus 1 Singapore/S275/1990.
The target of assay [6] is HLA-A*02:17. Described as above. Particulars: source organism: Dengue virus 1 Singapore/S275/1990.
For assay [7], the target named is HLA-A*02:03. The description is as above. Particulars: source organism: Dengue virus 1 Brazil/97-11/1997.
Assay [8] concerns the target HLA-A*68:02. The description is as above. Conditions: source organism: Dengue virus 1 Brazil/97-11/1997.
Assay [9] has as its target HLA-A*32:01. The description is as above.
In assay [10] the target is HLA-B*15:01. The description is as above.
In assay [11] the target is HLA-B*08:01. The description is as above.
Assay [12] deals with HLA-A*30:01. The assay is described as above.
Assay [13] has as its target HLA-A*24:02. Kind of assay: IEDB peptide-MHC binding, purified MHC/competitive/fluorescence; ≥ and ≤ were set here for values at or beyond the usual limits of such assays.
Assay [14] has as its target HLA-A*03:01. Kind of assay: IEDB peptide-MHC binding, purified MHC/direct/fluorescence; filed as Kd, often an IC50 or EC50 that approximates it; ≥ and ≤ were set here for values at or beyond the usual limits of such assays.
In assay [15] the target is HLA-A*02:01. Nature of the assay: IEDB peptide-MHC binding, purified MHC/competitive/fluorescence; ≥ and ≤ were set here for values at or beyond the usual limits of such assays. Particulars: source organism: Vaccinia virus WR.
Where [16] appears, read: source organism: Vaccinia virus WR.
[17] abbreviates: source organism: Vaccinia virus Copenhagen.
Setting [18] is: source organism: Vaccinia virus.
Setting [19] is: source organism: Escherichia coli O157:H7.
Where [20] appears, read: source organism: Mammarenavirus lassaense.
Setting [21] is: source organism: Campylobacter jejuni.
The mark [22] stands for this setting: source organism: Sudan ebolavirus.

Broadly, the Kd is the constant that tells how readily two partners part at equilibrium. As to KTFVELMRR, the Kd is at most 0.001 µM in assay [1] (source organism: dengue virus type 1) and 0.0162 µM in assay [2] (source organism: Dengue virus 1 Singapore/S275/1990).

Turning to LPTNEFISF, in assay [3] (setting [16]), the Kd turned out to be 0.0337 µM.

Take RQNRSQYLF: the Kd in assay [3] (setting [17]) came out at 0.000137 µM.

The IC50 is the concentration that gives 50% inhibition. A low value points to greater potency in that assay. For the sequence KCIKKGVEY, the half-inhibitory concentration (IC50) in [4] (setting [18]) is at least 91.2 µM.

Consider TLTAAVLMLV, for which the Kd is 0.00397 µM in assay [5], 1.06 µM in [6], 0.00345 µM in [7] and 0.00158 µM in [8].

Regarding IQTLNGKHF, the dissociation constant Kd in assay [3] (setting [16]) was 0.0114 µM.

For IKYACKQIL, the Kd in [9] (setting [16]) is 10.7 µM; in assay [10] (setting [16]), 6.87 µM; in assay [11] (setting [16]) it was 8.67 µM; in [12] (setting [16]), 2.11 µM; in assay [3] (setting [16]), 0.252 µM.

With IHFMREYWF, the dissociation constant (Kd) in [9] (setting [17]) came to 12.4 µM; in assay [10] (setting [17]), 6.91 µM; in assay [11] (setting [17]), 8.05 µM; in assay [12] (setting [17]) it was 0.0449 µM; in [3] (setting [17]), 0.222 µM.

For the sequence GTSGTEKEF, the 50% inhibitory concentration (IC50) in [13] (setting [18]) is at least 205 µM; in assay [4] (setting [18]), at least 401 µM.

In turn, KSNIEETKF displayed an IC50 in [4] (setting [18]) of at least 481 µM.

For SVAPGTDFR, the equilibrium dissociation constant (Kd) turned out to be 0.007 µM in assay [1] (source organism: Escherichia coli O157:H7 str. EDL933), 0.506 µM in assay [14] (setting [19]) and 0.0018 µM in assay [2] (setting [19]).

As for IQRTYSSSI, the Kd in assay [3] (setting [16]) was 0.00083 µM.

With ATREGKHGK, the Kd stood at 0.0813 µM in assay [1] (source organism: Shewanella baltica OS155), 0.301 µM in assay [14] (setting [19]) and 0.254 µM in [2] (setting [19]).

In the case of KLIDIALSK, the dissociation constant (Kd) amounted to 0.142 µM in assay [1] (source organism: Lassa virus Josiah), 0.639 µM in [14] (setting [20]) and 0.0012 µM in assay [2] (setting [20]).

Turning to ITLTNVVNI, the dissociation constant (Kd) in [9] (setting [16]) was 0.0771 µM; in [10] (setting [16]), 0.0116 µM; in assay [11] (setting [16]), 4.49 µM; in assay [12] (setting [16]), 0.0346 µM; in assay [3] (setting [16]), 0.0218 µM.

Consider KEFLRYLLF, for which the IC50 in assay [13] (setting [18]) is 0.381 µM; in assay [4] (setting [18]) it was at least 277 µM.

For the sequence FTRCAVIPF, the Kd in assay [3] (setting [16]) was 0.0054 µM.

Turning to VGLITCKAF, the IC50 was 7.71 µM in [13] (setting [16]), at least 1310 µM in assay [15] and 57.3 µM in assay [4] (setting [16]).

For IMLEYPHFK, the Kd in assay [1] (source organism: Campylobacter jejuni subsp. jejuni NCTC 11168 = ATCC 700819) turned out to be 0.0136 µM; in [14] (setting [21]), 0.0229 µM; in assay [2] (setting [21]) it was 0.0018 µM.

As for ILAKPKETF, the half-maximal inhibitory concentration (IC50) in [13] (setting [22]) is 0.5 µM; in assay [4] (setting [22]) it was at least 102 µM.
